Source: patent EP4574844A1 (Numab Therapeutics AG, dated 2025)

Assays:
recombinant human LILRB2 = molecular target: T1, recombinant human LILRB2 (human, UniProt Q8N423 22-460, limits assumed); test: SPR, LILRB2 immobilised, scFv as analyte
T1 construct: also called ILT4

[1] = molecular target: T2, human LILRB2 on the cell surface (human, UniProt Q8N423 22-597); test: flow cytometry, CHO cells expressing LILRB2; competitor HLA-G tetramer
T2 construct: whole, on cells; also called CHO K1 cells expressing human LILRB2; LILRB2 on HMDMs
T2 sequence (Q8N423 22-597): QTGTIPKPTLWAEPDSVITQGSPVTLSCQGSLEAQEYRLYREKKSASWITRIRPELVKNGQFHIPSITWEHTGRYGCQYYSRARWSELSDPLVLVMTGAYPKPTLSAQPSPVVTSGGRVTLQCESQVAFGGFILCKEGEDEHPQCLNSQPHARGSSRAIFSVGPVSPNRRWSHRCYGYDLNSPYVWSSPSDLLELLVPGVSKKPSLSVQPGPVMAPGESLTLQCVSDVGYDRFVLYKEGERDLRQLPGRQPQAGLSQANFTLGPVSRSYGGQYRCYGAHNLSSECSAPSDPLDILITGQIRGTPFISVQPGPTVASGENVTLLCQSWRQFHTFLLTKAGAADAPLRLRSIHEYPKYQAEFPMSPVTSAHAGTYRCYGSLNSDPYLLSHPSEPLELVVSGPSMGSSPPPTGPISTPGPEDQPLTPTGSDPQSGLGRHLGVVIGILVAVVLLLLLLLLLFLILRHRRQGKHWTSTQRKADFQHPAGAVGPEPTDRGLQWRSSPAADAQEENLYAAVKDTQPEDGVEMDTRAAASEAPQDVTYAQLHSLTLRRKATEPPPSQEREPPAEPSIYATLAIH

[2] = molecular target: T2, human LILRB2 on the cell surface; test: flow cytometry, CHO cells expressing LILRB2; competitor HLA-G tetramer; reference PRO2518
[3] = molecular target: T3, LILRA4 on transiently transfected CHO cells (UniProt P59901 24-499); test: CELISA, transiently transfected CHO cells; scFv cross-linked with an anti-framework antibody
T3 construct: whole, on cells; V5 tag at the N-terminus
T3 sequence (P59901 24-499): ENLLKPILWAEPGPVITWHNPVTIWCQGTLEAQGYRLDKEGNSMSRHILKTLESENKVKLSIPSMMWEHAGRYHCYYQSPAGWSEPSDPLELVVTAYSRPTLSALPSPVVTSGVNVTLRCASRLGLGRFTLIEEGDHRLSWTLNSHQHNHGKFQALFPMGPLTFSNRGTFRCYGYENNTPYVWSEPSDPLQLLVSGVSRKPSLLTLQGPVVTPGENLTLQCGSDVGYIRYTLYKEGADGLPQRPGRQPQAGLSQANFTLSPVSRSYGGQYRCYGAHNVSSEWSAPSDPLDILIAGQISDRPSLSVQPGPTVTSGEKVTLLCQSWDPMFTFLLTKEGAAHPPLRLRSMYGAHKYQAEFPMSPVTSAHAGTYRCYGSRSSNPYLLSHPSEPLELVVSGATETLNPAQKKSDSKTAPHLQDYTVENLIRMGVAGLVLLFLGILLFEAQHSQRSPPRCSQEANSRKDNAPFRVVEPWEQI

[4] = molecular target: T4, LILRA5 on transiently transfected CHO cells (UniProt A6NI73 42-299); test: as above
T4 construct: whole, on cells; V5 tag at the N-terminus
T4 sequence (A6NI73 42-299): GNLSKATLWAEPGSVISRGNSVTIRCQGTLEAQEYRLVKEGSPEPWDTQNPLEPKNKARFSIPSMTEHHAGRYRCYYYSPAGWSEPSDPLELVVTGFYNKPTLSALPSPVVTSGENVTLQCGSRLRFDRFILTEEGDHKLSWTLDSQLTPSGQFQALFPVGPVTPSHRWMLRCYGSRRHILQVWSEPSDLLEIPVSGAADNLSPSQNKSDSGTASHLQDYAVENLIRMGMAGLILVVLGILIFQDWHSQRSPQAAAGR

[5] = molecular target: T5, LILRB3 on transiently transfected CHO cells (UniProt O75022 24-631, limits assumed); test: as above
T5 construct: whole, on cells; V5 tag at the N-terminus

[6] = molecular target: T6, LILRA6 on transiently transfected CHO cells (UniProt Q6PI73 24-481); test: as above
T6 construct: whole, on cells; V5 tag at the N-terminus
T6 sequence (Q6PI73 24-481): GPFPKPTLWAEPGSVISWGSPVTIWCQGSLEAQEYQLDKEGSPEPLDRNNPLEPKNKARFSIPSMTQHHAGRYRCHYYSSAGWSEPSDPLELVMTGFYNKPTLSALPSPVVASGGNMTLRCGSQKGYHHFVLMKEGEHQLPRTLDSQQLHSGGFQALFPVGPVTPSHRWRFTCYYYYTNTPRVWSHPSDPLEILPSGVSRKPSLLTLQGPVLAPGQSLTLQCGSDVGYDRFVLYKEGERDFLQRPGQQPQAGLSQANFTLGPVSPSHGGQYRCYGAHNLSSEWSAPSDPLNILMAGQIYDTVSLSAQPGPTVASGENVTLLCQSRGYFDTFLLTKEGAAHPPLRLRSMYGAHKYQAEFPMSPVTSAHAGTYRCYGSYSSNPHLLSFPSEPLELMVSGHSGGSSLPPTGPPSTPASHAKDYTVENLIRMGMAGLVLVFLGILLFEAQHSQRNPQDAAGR

[7] = molecular target: T7, LILRA3 on transiently transfected CHO cells (UniProt Q8N6C8 24-439); test: as above
T7 construct: whole, on cells; V5 tag at the N-terminus
T7 sequence (Q8N6C8 24-439): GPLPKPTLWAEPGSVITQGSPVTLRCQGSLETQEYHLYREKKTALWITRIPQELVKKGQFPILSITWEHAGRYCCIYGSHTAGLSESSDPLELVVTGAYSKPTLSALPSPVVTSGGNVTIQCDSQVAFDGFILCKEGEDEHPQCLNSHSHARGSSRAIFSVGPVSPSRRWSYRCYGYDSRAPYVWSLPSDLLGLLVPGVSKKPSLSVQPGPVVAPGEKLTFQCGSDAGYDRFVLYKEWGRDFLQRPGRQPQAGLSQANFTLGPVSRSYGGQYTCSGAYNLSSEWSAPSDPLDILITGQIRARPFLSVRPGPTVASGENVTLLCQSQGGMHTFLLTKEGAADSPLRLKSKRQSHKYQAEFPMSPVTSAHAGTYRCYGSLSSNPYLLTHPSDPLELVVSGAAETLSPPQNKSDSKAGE

[8] = molecular target: T8, LILRB5 on transiently transfected CHO cells (UniProt O75023 24-590, limits assumed); test: as above
T8 construct: whole, on cells; V5 tag at the N-terminus
T8 sequence (O75023 24-590 limits assumed): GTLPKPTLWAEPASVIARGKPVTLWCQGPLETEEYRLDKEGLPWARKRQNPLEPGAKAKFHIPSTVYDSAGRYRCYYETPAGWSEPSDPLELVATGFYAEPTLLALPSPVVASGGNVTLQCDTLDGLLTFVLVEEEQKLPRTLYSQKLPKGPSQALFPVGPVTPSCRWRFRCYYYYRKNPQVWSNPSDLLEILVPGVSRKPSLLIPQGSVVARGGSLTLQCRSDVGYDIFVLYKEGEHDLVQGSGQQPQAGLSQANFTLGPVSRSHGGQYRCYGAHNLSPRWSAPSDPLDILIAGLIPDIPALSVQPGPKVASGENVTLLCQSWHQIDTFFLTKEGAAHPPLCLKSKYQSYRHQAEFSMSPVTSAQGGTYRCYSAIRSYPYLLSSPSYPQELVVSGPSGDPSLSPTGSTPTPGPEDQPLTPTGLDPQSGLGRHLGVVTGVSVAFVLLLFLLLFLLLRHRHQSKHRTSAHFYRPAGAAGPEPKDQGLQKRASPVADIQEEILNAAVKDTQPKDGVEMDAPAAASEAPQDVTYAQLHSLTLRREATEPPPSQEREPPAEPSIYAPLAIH

[9] = molecular target: T9, LILRB4 on transiently transfected CHO cells (UniProt Q8NHJ6 22-448); test: as above
T9 construct: whole, on cells; V5 tag at the N-terminus

[10] = molecular target: T10, LILRA2 on transiently transfected CHO cells (UniProt Q8N149 24-483); test: as above
T10 construct: whole, on cells; V5 tag at the N-terminus
T10 sequence (Q8N149 24-483): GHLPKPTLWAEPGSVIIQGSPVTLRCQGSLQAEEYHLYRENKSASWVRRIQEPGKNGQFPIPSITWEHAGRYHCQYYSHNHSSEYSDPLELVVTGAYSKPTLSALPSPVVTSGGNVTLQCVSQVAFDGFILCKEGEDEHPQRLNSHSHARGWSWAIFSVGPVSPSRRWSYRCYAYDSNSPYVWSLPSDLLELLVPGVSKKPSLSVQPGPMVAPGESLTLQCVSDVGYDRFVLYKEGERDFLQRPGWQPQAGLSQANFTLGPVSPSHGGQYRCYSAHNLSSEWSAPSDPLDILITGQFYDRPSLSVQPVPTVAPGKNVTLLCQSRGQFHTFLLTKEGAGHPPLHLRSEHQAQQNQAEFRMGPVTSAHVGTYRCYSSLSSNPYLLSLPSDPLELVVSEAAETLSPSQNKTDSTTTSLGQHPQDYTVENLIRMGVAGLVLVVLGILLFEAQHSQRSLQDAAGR

[11] = molecular target: T11, LILRA1 on transiently transfected CHO cells (UniProt O75019 17-489, limits assumed); test: as above
T11 construct: whole, on cells; V5 tag at the N-terminus
T11 sequence (O75019 17-489 limits assumed): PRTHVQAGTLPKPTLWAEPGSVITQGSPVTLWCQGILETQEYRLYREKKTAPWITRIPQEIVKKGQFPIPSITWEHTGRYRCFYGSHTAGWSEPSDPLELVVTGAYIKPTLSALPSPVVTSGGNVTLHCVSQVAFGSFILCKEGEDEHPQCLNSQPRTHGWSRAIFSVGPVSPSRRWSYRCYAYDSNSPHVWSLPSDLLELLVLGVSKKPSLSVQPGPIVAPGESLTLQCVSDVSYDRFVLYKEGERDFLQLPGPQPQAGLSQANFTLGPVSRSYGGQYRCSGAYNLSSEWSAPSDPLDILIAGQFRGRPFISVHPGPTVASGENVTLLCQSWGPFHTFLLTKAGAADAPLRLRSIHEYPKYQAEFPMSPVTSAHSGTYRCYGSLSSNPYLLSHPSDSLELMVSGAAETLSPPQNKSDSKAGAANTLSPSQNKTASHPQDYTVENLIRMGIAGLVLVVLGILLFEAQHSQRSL

[12] = molecular target: T3, LILRA4 on transiently transfected CHO …; test: CELISA, transiently transfected CHO cells
[13] = molecular target: T4, LILRA5 on transiently transfected CHO …; test: CELISA, transiently transfected CHO cells
[14] = molecular target: T5, LILRB3 on transiently transfected CHO …; test: CELISA, transiently transfected CHO cells
[15] = molecular target: T12, LILRB1 on transiently transfected CHO cells (UniProt Q8NHL6 24-650); test: CELISA, transiently transfected CHO cells
T12 construct: whole, on cells; V5 tag at the N-terminus
T12 sequence (Q8NHL6 24-650): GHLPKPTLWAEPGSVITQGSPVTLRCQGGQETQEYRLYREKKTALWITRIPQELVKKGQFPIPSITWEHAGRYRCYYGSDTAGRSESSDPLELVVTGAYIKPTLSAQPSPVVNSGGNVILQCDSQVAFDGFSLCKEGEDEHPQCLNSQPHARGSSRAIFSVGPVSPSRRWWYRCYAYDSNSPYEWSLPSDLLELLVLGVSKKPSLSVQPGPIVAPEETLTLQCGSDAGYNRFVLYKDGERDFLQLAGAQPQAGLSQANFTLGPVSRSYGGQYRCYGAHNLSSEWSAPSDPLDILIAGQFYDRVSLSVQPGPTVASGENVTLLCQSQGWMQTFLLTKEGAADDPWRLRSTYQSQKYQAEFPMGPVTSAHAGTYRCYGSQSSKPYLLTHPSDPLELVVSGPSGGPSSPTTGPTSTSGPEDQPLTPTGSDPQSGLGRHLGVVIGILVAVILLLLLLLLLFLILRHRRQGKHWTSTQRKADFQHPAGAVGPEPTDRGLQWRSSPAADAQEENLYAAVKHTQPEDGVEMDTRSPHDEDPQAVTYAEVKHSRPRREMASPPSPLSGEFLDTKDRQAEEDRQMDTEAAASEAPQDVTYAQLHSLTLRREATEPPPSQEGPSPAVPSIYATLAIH

[16] = molecular target: T6, LILRA6 on transiently transfected CHO …; test: CELISA, transiently transfected CHO cells
[17] = molecular target: T7, LILRA3 on transiently transfected CHO …; test: CELISA, transiently transfected CHO cells
[18] = molecular target: T13, LILRB2 (Q8N423-2) on transiently transfected CHO cells (UniProt Q8N423-2 22-597); test: CELISA, transiently transfected CHO cells
T13 construct: whole, on cells
T13 sequence (Q8N423 22-597, one chain of several): as the sequence (Q8N423 22-597) above

[19] = molecular target: T8, LILRB5 on transiently transfected CHO …; test: CELISA, transiently transfected CHO cells
[20] = molecular target: T9, LILRB4 on transiently transfected CHO …; test: CELISA, transiently transfected CHO cells
[21] = molecular target: T10, LILRA2 on transiently transfected CHO …; test: CELISA, transiently transfected CHO cells
[22] = molecular target: T11, LILRA1 on transiently transfected CHO …; test: CELISA, transiently transfected CHO cells
[23] = molecular target: T2, human LILRB2 on the cell surface; test: positive control of the LILRB2 ligand-blocking flow cytometry assay

T1 sequence (Q8N423 22-460 limits assumed): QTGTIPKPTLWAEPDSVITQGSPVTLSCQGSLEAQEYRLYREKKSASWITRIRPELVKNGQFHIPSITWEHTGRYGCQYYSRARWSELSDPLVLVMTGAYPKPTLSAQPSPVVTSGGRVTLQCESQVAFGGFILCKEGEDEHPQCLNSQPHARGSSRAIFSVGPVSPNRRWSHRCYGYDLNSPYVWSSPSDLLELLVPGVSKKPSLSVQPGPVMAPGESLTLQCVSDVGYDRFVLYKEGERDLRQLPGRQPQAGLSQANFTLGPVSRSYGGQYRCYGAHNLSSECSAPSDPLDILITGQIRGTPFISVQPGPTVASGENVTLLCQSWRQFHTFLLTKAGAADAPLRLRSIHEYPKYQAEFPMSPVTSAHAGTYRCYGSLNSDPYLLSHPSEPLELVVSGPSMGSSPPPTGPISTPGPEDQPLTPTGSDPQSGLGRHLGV

B1: PRO3697 (scFv)
scFv: AFQLTQSPSSLSASVGDRVTITCQASQSIGTYLAWYQQKPGKPPKLLIYRGGTLASGVPSRFSGSGSGTDFTLTISSLQPEDFATYYCQSYDSSNTFGTGTKVTVLGGGGGSGGGGSGGGGSGGGGSQEQLVESGGGLVQPGRSLRLSCAASGFDLSADYMCWVRQAPGKGLEWIACIYIDDDNTYYATWAKGRFTISKDNSKNTVYLQMNSLRAEDSAVYFCARGYGVYTGAITYFTLWGQGTLVKVSS
notes: anti-LILRB2 scFv; in the CELISA selectivity test it was cross-linked with an anti-framework antibody; also called 69-06-G04-sc05
- Kd (recombinant human LILRB2): 0.131 nM
- koff (recombinant human LILRB2): 0.000128 s⁻¹
- kon (recombinant human LILRB2): 974000 M⁻¹ s⁻¹
- IC50 [1]: 0.593 nM
- Rel. max. inhibition % (rel. to J-19) [2]: 99.5%
- binding result [3]: no binding
- binding result [4]: no binding
- binding result [5]: no binding
- binding result [6]: no binding
- binding result [7]: no binding
- binding result [8]: no binding
- binding result [9]: no binding
- binding result [10]: no binding
- binding result [11]: no binding

B2: PRO3635 (antibody, human IgG4 S228P, kappa, V domains shown)
VH: QQLVESGGGRVQPGGSLRLSCAASGFSFTNNYYMCWVRQAPGKGLEWIACMLVGAWGNTYYASWANGRFTISKDNSKNTVYLQMNSLRAEDTATYFCARARDYTWTLGGDPETSGFNLWGQGTQVTVSS
VL: DVQMTQSPSSLSASVGDRVTITCQASQSIGSNLAWYQQKPGKPPKLLIYKASTLESGVPSRFSGSGSGTDFTLTISSLQPEDFATYYCQSTAGSSRSGNYGYVFGQGTKVEIKR
notes: anti-LILRB2 IgG4; also called 68-18-E11-sc02 IgG4; IgG variant of scFv PRO3064
- binding result [12]: no binding (tested: up to 100 nM)
- binding result [13]: no binding (tested: up to 100 nM)
- binding result [14]: no binding (tested: up to 100 nM)
- binding result [15]: no binding (tested: up to 100 nM)
- binding result [16]: no binding (tested: up to 100 nM)
- binding result [17]: no binding (tested: up to 100 nM)
- binding result [18]: binds
- binding result [19]: no binding (tested: up to 100 nM)
- binding result [20]: no binding (tested: up to 100 nM)
- binding result [21]: no binding (tested: up to 100 nM)
- binding result [22]: no binding (tested: up to 100 nM)

B3: PRO2518 (antibody, human IgG4 S228P, kappa, V domains shown)
VH: QITLKESGPTLVKPTQTLTLTCTFSGFSLNTYAMGVSWIRQPPGKALEWLASIWWNGNKYNNPSLKSRLTVTKDTSKNQVVLTMTNMDPVDTATYYCAHSRIIRFTDYVMDAWGQGTLVTVSS
VL: DIQMTQSPSSLSTSVGDRVTITCRASEDIYNDLAWYQQKPGKAPKLLIYNANSLHTGVASRFSGSGSGTDFTFTISSLQPEDVATYFCQQYYDYPLTFGQGTKLEIKR
notes: also called J19.H1; J-19
- binding result [23]: binds
